The values below come from patent US20140141003A1 (Bayer, published 2014).

Read-outs that look alike come from different tables or passages of the source.

Assay [1] addresses human PRLR expressed on cells (human) (UniProt P16471). As to the kind of experiment: flow cytometry on human T47D breast cancer cells (natural PRLR), IgG1 format.
For assay [2], the target named is T1, rhesus monkey PRLR expressed on cells (rhesus monkey, UniProt F7HIU9 25-619).
T1 construct: whole, on cells; also called rhesus PRLR; BaF3-rhesus PRLR
T1 sequence: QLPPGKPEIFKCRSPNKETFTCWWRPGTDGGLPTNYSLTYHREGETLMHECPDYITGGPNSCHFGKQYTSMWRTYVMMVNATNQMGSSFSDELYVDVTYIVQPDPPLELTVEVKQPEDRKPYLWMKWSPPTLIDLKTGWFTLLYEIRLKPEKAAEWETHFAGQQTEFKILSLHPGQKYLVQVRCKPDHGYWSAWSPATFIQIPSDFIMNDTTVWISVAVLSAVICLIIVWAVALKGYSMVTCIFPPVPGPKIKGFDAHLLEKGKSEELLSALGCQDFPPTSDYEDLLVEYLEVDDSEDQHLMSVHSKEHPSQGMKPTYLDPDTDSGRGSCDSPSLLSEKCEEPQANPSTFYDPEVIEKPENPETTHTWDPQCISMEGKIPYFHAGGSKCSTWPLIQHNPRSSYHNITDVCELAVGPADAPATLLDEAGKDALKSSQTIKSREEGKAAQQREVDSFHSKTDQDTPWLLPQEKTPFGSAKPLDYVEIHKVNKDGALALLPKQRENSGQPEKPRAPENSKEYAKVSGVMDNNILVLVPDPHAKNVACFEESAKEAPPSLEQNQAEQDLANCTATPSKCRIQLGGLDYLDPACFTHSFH
As to the kind of experiment: flow cytometry on BaF3-rhesus PRLR cells, IgG1 format.

Assay [3] addresses human PRLR expressed on cells (human) (UniProt P16471). Kind of assay: flow cytometry on BaF3-human PRLR cells, IgG1 format.
The target of assay [4] is T1, rhesus monkey PRLR expressed on cells. Kind of assay: cell-based or functional assay.
Assay [5] addresses human PRLR expressed on cells (human) (UniProt P16471). Kind of assay: flow cytometry on HEK293-human PRLR cells, IgG1 format.
The target in assay [6] is murine PRLR expressed on cells (mouse) (UniProt Q08501). Kind of assay: cell-based or functional assay.
Assay [7] addresses human PRLR expressed on cells (human) (UniProt P16471). As to the kind of experiment: cell-based or functional assay.
Assay [8] has as its target T2, extracellular domain of human PRLR (soluble, monomeric) (human, UniProt P16471 25-234).
T2 construct: also called Human ECD PRLR; ECD-PRLR
T2 sequence: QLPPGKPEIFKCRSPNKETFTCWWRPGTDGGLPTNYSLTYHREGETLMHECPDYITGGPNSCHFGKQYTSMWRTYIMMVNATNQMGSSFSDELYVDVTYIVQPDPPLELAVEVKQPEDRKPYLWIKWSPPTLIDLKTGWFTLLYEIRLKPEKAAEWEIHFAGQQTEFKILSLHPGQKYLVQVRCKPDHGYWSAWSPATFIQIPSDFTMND
As to the kind of experiment: SPR (Biacore T100), antibody captured via anti-human IgG Fc, monovalent ECD as analyte, Example 13.
Procedure: (§1) Antibodies were immobilized onto a CM5 sensor chip through an indirect capturing reagent, anti-human IgG Fc. […] Approximately 5000 RU monoclonal mouse anti-human IgG (Fc) antibody were immobilized per cell. Each test antibody was injected at a concentration of 5 μg/ml at 10 μl/min for 10 sec to reach a capturing level of approximately 200 to 600 RU. […] Sensograms were generated after in-line reference cell correction followed by buffer sample subtraction. The dissociation equilibrium constant (KD) was calculated based on the ratio of association (kon) and dissociation rated (koff=kd) constants, obtained by fitting sensograms with a first order 1:1 binding model using BiaEvaluation Software (see Table 7).

The target of assay [9] is T3, extracellular domain of rhesus and cynomolgus monkey PRLR (Fc-His removed by Factor Xa digestion) (rhesus and cynomolgus monkey, UniProt P16471 25-234 (human entry)).
T3 construct: the fusion part was removed by Factor Xa before SPR; also called Rhesus/Cynomolgus PRLR; Rhesus and cynomolgus monkey ECD PRLR
T3 chain: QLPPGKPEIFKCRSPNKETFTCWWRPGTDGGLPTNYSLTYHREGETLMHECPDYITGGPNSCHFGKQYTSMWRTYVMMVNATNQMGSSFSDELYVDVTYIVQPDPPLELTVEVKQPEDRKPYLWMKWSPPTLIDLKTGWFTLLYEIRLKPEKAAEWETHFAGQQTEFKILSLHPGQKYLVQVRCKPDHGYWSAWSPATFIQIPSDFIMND
The description is as above.
Procedure: as §1

Assay [10] deals with T4, extracellular domain of murine PRLR (soluble, monomeric) (mouse, UniProt Q08501 20-229).
T4 construct: Expressed in HEK293 cells; also called Murine ECD PRLR; Mouse PRLR
T4 sequence: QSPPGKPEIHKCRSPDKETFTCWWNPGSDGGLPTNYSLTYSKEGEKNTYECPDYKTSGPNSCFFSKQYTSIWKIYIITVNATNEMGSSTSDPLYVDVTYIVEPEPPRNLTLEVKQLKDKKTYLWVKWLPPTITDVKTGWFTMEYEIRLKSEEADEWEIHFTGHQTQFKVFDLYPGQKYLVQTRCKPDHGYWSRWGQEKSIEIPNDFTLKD
Described as above.
Procedure: as §1

The target in assay [11] is T2, extracellular domain of human PRLR …. As to the kind of experiment: SPR: ECD-PRLR captured by immobilized Mat3 or HE06642, human PRL passed over.
Assay [12] addresses murine PRLR expressed on cells (mouse) (UniProt Q08501). Kind of assay: flow cytometry on HEK293-murine PRLR cells, IgG1 format.
Assay [13] shares this target. Kind of assay: flow cytometry on BaF3-mouse PRLR cells, IgG1 format.
For assay [14] the target is unchanged. Kind of assay: cell-based or functional assay. This is another data set of the same source.
Assay [15] deals with human PRLR expressed on cells (human) (UniProt P16471). As to the kind of experiment: cell-based or functional assay. The source holds these as a separate data set.
The target of assay [16] is T2, extracellular domain of human PRLR …. As to the kind of experiment: SPR (Biacore T100), antibody captured via anti-human IgG Fc, monovalent ECD as analyte, Example 10.
Procedure: (§2) Antibodies were immobilized onto a CM5 sensor chip through an indirect capturing reagent, anti-human IgG Fc. […] Approximately 5000 RU monoclonal mouse anti-human IgG (Fc) antibody were immobilized per cell. […] Sensograms were generated after in-line reference cell correction followed by buffer sample subtraction. The dissociation equilibrium constant (KD) was calculated based on the ratio of association (kon) and dissociation rated (koff=kd) constants, obtained by fitting sensograms with a first order 1:1 binding model using BiaEvaluation Software.
Assay [17] deals with T3, extracellular domain of rhesus and …. The description is as above.
Procedure: as §2
For assay [18], the target named is T4, extracellular domain of murine PRLR …. The assay is described as above.
Procedure: as §2
Assay [19] has as its target T1, rhesus monkey PRLR expressed on cells. Kind of assay: flow cytometry on Ba/F cells expressing rhesus monkey PRLR, Example 9.
Procedure: The cells were harvested, centrifuged and resuspended at approximately 2×10⁶ cells/ml in 1×PBS containing 3% FBS and 0.05% sodium azide (FACS buffer). […] For secondary antibody and autofluorescence controls, 50 μl FACS buffer was added to appropriate wells. 50 μl of cell suspension was added to each sample well. Samples were incubated at 4° C. for one hour, washed twice with cold FRCS buffer and resuspended in FACS buffer containing PE-conjugated goat anti-human IgG at a 1:100 dilution. Following a 30 min incubation at 4° C., cells were washed twice with cold FACS buffer, resuspended in FACS buffer containing 1 mg/ml propidium iodide (Invitrogen, San Diego, Calif.) and analyzed by flow cytometry.
In assay [20] the target is human PRLR expressed on cells (human) (UniProt P16471). As to the kind of experiment: flow cytometry on HEK293 cells expressing human PRLR, Example 9.

B1: antibody HE06642 as IgG1 molecule (antibody, V domains shown)
VH: EVQLVESGGGLVQPGGSLRLSCAVSGFTFSSYGMSWVRQAPGKGLEWVATVSSGGTYTYYPDSVKGRFTISRDNSKNTLYLQMNSLRAEDTAVYYCARHRGNYYATYYYAMDYWGQGTLVTVSS
VL: DIVLTQSPDSLAVSLGERATINCKASKSVSTSGYTYMHWYQQKPGQPPKLLIYLASNRESGVPDRFSGSGSGTDFTLTISPVQAEDVATYYCQHSGELPPSFGQGTKLEIKR
As for B1, the EC50 in [1] was found to be 0.8 nM; in assay [2], 3.2 nM; in [3] it was 0.2 nM; in assay [5], 1.6 nM. For the same molecule, the “IC50, inhibition of prolactin-induced proliferation of BaF3 cells stably transfected with the rhesus prolactin receptor” value in [4] is 206 nM. Also, the IC50, inhibition of LHRE luciferase reporter gene activity in HEK293 cells stably transfected with murine PRLR in [6] is > 1330 nM. This molecule also came in with an IC50, inhibition of LHRE luciferase reporter gene activity in HEK293 cells stably transfected with human PRLR in assay [7] of 4.6 nM. The same molecule yielded an IC50, inhibition of prolactin-induced proliferation of BaF3 cells stably transfected with human prolactin receptor in [7] of 4.2 nM.

B2: antibody HE06642 (isotype not stated) (antibody, V domains shown)
VH: EVQLVESGGGLVQPGGSLRLSCAVSGFTFSSYGMSWVRQAPGKGLEWVATVSSGGTYTYYPDSVKGRFTISRDNSKNTLYLQMNSLRAEDTAVYYCARHRGNYYATYYYAMDYWGQGTLVTVSS
VL: DIVLTQSPDSLAVSLGERATINCKASKSVSTSGYTYMHWYQQKPGQPPKLLIYLASNRESGVPDRFSGSGSGTDFTLTISPVQAEDVATYYCQHSGELPPSFGQGTKLEIKR
notes: Kappa light chain; also called he06.642-2 of WO 2008/022295
As for B2, the Kd in assay [8] stood at 0.8 nM; in assay [9] it was 17 nM; in [10] it was 15 nM. For the same molecule, the koff in [8] came out at 0.000533 s⁻¹; in assay [9], 0.00579 s⁻¹; in [10], 0.0091 s⁻¹.

B3: human prolactin (ligand, UniProt P01236 29-227, looked up)
chain: LPICPGGAARCQVTLRDLFDRAVVLSHYIHNLSSEMFSEFDKRYTHGRGFITKAINSCHTSSLATPEDKEQAQQMNQKDFLSLIVSILRSWNEPLYHLVTEVRGMQEAPEAILSKAVEIEEQTKRLLEGMELIVSQVHPETKENEIYPVWSGLPSLQMADEESRLSAYYNLLHCLRRDSHKIDNYLKLLKCRIIHNNNC
notes: also called PRL; Human PRL
Take B3: in [11], the binding result is “binds”.

B4: antibody Mat3 in IgG1 format (antibody, V domains shown)
VH: EVQLLESGGGLVQPGGSLRLSCAASGFTFSSYWMHWVRQAPGKGLEWVSDIARLSSYTNYADSVKGRFTISRDNSKNTLYLQMNSLRAEDTAVYYCARGLDARRMDYWGQGTLVTVSS
VL: QSVLTQPPSASGTPGQRVTISCTGSSSNIGAGYVVHWYQQLPGTAPKLLIYRNNQRPSGVPDRFSGSKSGTSASLAISGLRSEDEADYYCAAWDDSLNGWLFGGGTKLTVLG
notes: also called Mat3 IgG1
Turning to B4, the EC50 in assay [1] was determined as 0.4 nM; in assay [2] it was 1.2 nM; in assay [3], 0.1 nM; in [12] it was 0.1 nM; in assay [5], 0.8 nM; in [13], 0.2 nM. Also, the “IC50, inhibition of prolactin-induced proliferation of BaF3 cells stably transfected with the rhesus prolactin receptor” value in assay [4] is 4.6 nM. This molecule also displayed an IC50, inhibition of LHRE luciferase reporter gene activity in HEK293 cells stably transfected with murine PRLR in assay [14] of 1.3 nM. Moreover, the IC50, inhibition of prolactin-induced proliferation of BaF3 cells stably transfected with the murine prolactin receptor in assay [14] stood at 3 nM. Moreover, the % inhibition of prolactin-induced proliferation at 1 µg/ml (=6.7 nM) in assay [15] turned out to be 100%. In assay [15], this molecule yielded an IC50, inhibition of LHRE luciferase reporter gene activity in HEK293 cells stably transfected with human PRLR of 0.5 nM. In assay [15], the IC50, inhibition of prolactin-induced proliferation of BaF3 cells stably transfected with human prolactin receptor came to 0.7 nM.

B5: antibody Mat3 as human IgG molecule (isotype not stated) (antibody, V domains shown)
VH: EVQLLESGGGLVQPGGSLRLSCAASGFTFSSYWMHWVRQAPGKGLEWVSDIARLSSYTNYADSVKGRFTISRDNSKNTLYLQMNSLRAEDTAVYYCARGLDARRMDYWGQGTLVTVSS
VL: QSVLTQPPSASGTPGQRVTISCTGSSSNIGAGYVVHWYQQLPGTAPKLLIYRNNQRPSGVPDRFSGSKSGTSASLAISGLRSEDEADYYCAAWDDSLNGWLFGGGTKLTVLG
notes: Lambda light chain; also called neutralizing prolactin receptor antibody Mat3
For B5, the Kd came out at 1.3 nM in assay [8]; 9.6 nM in assay [9]; 0.4 nM in [10]; 0.9 nM in assay [16]; 7.1 nM in assay [17]; 0.4 nM in assay [18]. Besides, the koff is 0.000414 s⁻¹ in [8]; 0.00102 s⁻¹ in [9]; 0.000164 s⁻¹ in [10]; 0.00044 s⁻¹ in [16]; 0.0011 s⁻¹ in assay [17]; 0.00021 s⁻¹ in assay [18].

B6: antibody Mat3 as human IgG2 molecule (antibody, V domains shown)
VH: EVQLLESGGGLVQPGGSLRLSCAASGFTFSSYWMHWVRQAPGKGLEWVSDIARLSSYTNYADSVKGRFTISRDNSKNTLYLQMNSLRAEDTAVYYCARGLDARRMDYWGQGTLVTVSS
VL: QSVLTQPPSASGTPGQRVTISCTGSSSNIGAGYVVHWYQQLPGTAPKLLIYRNNQRPSGVPDRFSGSKSGTSASLAISGLRSEDEADYYCAAWDDSLNGWLFGGGTKLTVLG
notes: also called IgG2 Mat3
For B6, the EC50 in assay [19] was 2.94 nM; in [20] it was 0.53 nM.
